Test results as given in patent US20130224187A1 (Alexion, published 2013).
Positions count from the first letter of the chain named.

B1: 5an188ME (antibody, V domains shown)
VH: EVQLQQSGAELVKPGTSVKLSCKASGYTFTSYWMHWVKQRPGQGLEYIGEIHPSSGHTNYHEKFKSKATLTVDKSSSTAYMQLSSLTSEDSAVYYCARASLLRAYAMDYWGQGTSVTVSS
VL: DIVLTQSPASLAVSLGQRATISCRASESVDSYGNSFMHWYQQKPGQPPKLLIYLASNLESGVPARFSGSGSRTDFTLTIDPVEADDAATYYCQQNNEDPLTFGAGTKLELKR
notes: Murine
B2: 5an185ME (antibody, V domains shown)
VH: EVQPQQSGPELVKPGSSVKISCKASGYTFTDYSMDWVKQSHGKSLEWIGAIHLNTGYTNYNQKFKGKATLTVDKSSSTAYMELRSLTSEDSAVYYCARGFYDGYSPMDYWGQGTSVTVSS
VL: B1 VL with L54R, V62I, D80N, A87V, N95S
notes: Murine
B3: 5an183 (antibody, V domains shown)
VH: EVQLQQPGSVLVRPGATVKLSCKASGFTFTSSWMHWAKQRPGQGLEWIGEIHTSGHTNYNEKFKGKATLTLDTSSSTAYVDISSLTSEDSAVYYCARGGLRRGYAMDYWGQGTSVTVSS
VL: B1 VL with L54R, V62I, D80N, A87V, N95S
notes: Murine
B4: 5an177ME (antibody, V domains shown)
VH: EVKLVESGGGLVKPGGSLKLSCAASGITFSSYYMAWVRQTPDKRLEWVATISSGGSYTYYPDNVKGRFTISRDNAKNTLYLQMSSLKSEDTAMYYCTRYYEDDAMDYWGQGTSVTVSS
VL: EIVLTQSPAIMSASPGEKVTMTCSASSSVSYMHWYQQKSGTSPKRWIYDTSKLASGVPARFSGSGSGTSYSLTISSMEAEDAATYYCQQWSSNPLTFGAGTKLELKR
notes: Murine
B5: 5an047 (antibody, V domains shown)
VH: EVQLQQSGPELVKPGASVRISCKASGYTFSDYYYMNWVKKSHGKSLEWIGYIFPKTGGTHYNQRFKGKATLTVDKSSSTAYMELRSLTSEDSAVYYCASGPFAYWGQGTLVTVSA
VL: EIVLTQSPAIMSASPGEKVTMTCRASSSVSSSYLHWYQQKSGASPKLWIYSTSNLASGVPARFSGSGSGTSYSLTISSVEAEDAATYYCQQYSGYPLTFGAGTKLELKR
notes: Murine
B6: 5anG12 (antibody, V domains shown)
VH: B5 VH with S30N, K40Q
VL: B4 VL with E1Q, V29I, S39P, Q88H, W90R, N93Y, L95W, A99G, L105I
notes: Murine
B7: 5anE11 (antibody, V domains shown)
VH: B5 VH
VL: DIVMTQSQKFMSTSVGDRVSVTCKASQNVGTNVAWYQQKPGQSPKALIYSASYRYSGVPDRFTGSGSGTDFTLTISNVQSEDLAEYFCQQYNSYPWTFGGGTKLEIKR
notes: Murine
B8: 5an054ME (antibody, V domains shown)
VH: B5 VH with R19K, S30T, K40Q, K55N, H60T
VL: QIVLTQSPVIMSASPGEKVTMTCSASSSVSYMYWYQQKPGSSPRLLIYDTSNLASGVPVRFSGSGSGTSYSLTISRMEAEDAATYYCQQWSSYPPTFGAGTKLELKR
notes: Murine
B9: 5an052 (antibody, V domains shown)
VH: B5 VH with S30N, K40Q
VL: QIVLTQSPAIMSASPGEKVTLTCSASSSVSSSYLYWYQQKPGSSPKLWIYSTSNLASGVPARFSGSGSGTSYSLTISTVEAEDAASYFCHQWSSYPPTFGGGTKLEIKR
notes: Murine
B10: 5an109 (antibody, V domains shown)
VH: B5 VH with R19K, H60N
VL: B8 VL with Q1E, V9A, A99G, L105I
notes: Murine
B11: 5an053 (antibody, V domains shown)
VH: B5 VH with L4M, R19K, H60N
VL: EIVLTQSPVIMSASPGEKVTMICSASSSISYMHWYQQKPGTSPKRWIYDTSKLASGVPARFSGSGSGTSYSLTISIMEAEDAATYYCHQRSSYPWTFGGGTKLEIKR
notes: Murine
B12: 5an055 (antibody, V domains shown)
VH: B5 VH with R19K, H60N
VL: B9 VL with Q1E, T78S, V79M
notes: Murine
B13: 5anG10 (antibody, V domains shown)
VH: B5 VH with S30N, K40Q
VL: B11 VL with E1Q, V9A, I22T, I76S, S91R
notes: Murine
B14: 5an181 (antibody, V domains shown)
VH: B5 VH with R19K, H60N
VL: B5 VL
notes: Murine
B15: 5an110ME (antibody, V domains shown)
VH: B5 VH with R19K, H60N, N62S
VL: B7 VL with W96F, G100S
notes: Murine
B16: BNJ367 (antibody, human IgG2, kappa)
heavy: QVQLVQSGAEVKKPGASVKVSCKASGYTFTDYSMDWVRQAPGQGLEWMGAINPNSGGTNYNQKFKDRVTMTRDTSTSTVYMELSSLRSEDTAVYYCARSGSYDGYYAMDYWGQGTTVTVSSASTKGPSVFPLAPCSRSTSESTAALGCLVKDYFPEPVTVSWNSGALTSGVHTFPAVLQSSGLYSLSSVVTVPSSNFGTQTYTCNVDHKPSNTKVDKTVERKCCVECPPCPAPPVAGPSVFLFPPKPKDTLMISRTPEVTCVVVDVSQEDPEVQFNWYVDGVEVHNAKTKPREEQFNSTYRVVSVLTVLHQDWLNGKEYKCKVSNKGLPSSIEKTISKAKGQPREPQVYTLPPSQEEMTKNQVSLTCLVKGFYPSDIAVEWESNGQPENNYKTTPPVLDSDGSFFLYSRLTVDKSRWQEGNVFSCSVMHEALHNHYTQKSLSLSLGK
light: DIVMTQSPDSLAVSLGERATINCRASESVDSYGNSFMHWYQQKPGQPPKLLIYRASNLESGVPDRFSGSGSGTDFTLTISSLQAEDVAVYYCQQSNEDPYTFGGGTKVEIKRTVAAPSVFIFPPSDEQLKSGTASVVCLLNNFYPREAKVQWKVDNALQSGNSQESVTEQDSKDSTYSLSSTLTLSKADYEKHKVYACEVTHQGLSSPVTKSFNRGEC
notes: Humanized full length IgG
B17: BNJ369 (antibody, human IgG2, kappa)
heavy: QVQLVQSGAEVKKPGASVKVSCKASGYTFTDYSMDWVRQAPGQGLEWMGAIHLNTGYTNYNQKFKGRVTMTRDTSTSTVYMELSSLRSEDTAVYYCARGFYDGYSPMDYWGQGTTVTVSSASTKGPSVFPLAPCSRSTSESTAALGCLVKDYFPEPVTVSWNSGALTSGVHTFPAVLQSSGLYSLSSVVTVPSSNFGTQTYTCNVDHKPSNTKVDKTVERKCCVECPPCPAPPVAGPSVFLFPPKPKDTLMISRTPEVTCVVVDVSQEDPEVQFNWYVDGVEVHNAKTKPREEQFNSTYRVVSVLTVLHQDWLNGKEYKCKVSNKGLPSSIEKTISKAKGQPREPQVYTLPPSQEEMTKNQVSLTCLVKGFYPSDIAVEWESNGQPENNYKTTPPVLDSDGSFFLYSRLTVDKSRWQEGNVFSCSVMHEALHNHYTQKSLSLSLGK
light: B16 light
notes: Humanized full length IgG
B18: BNJ371 (antibody, human IgG2, kappa, V domains shown)
VH: QVQLVQSGAEVKKPGASVKVSCKASGYTFTDYSMDWVRQAPGQGLEWMGAINPNSGGTNYNQKFKDRVTMTRDTSTSTVYMELSSLRSEDTAVYYCARSGSYDGYYAMDYWGQGTTVTVSS
VL: DIVMTQSPDSLAVSLGERATINCRASESVDSYGNSFMHWYQQKPGQPPKLLIYWASTRESGVPDRFSGSGSGTDFTLTISSLQAEDVAVYYCQQSNEDPYTFGGGTKVEIKR
notes: Humanized full length IgG; Light chain CDR2 is humanized
B19: BNJ364 (antibody, human IgG2, kappa)
heavy: QVQLVQSGAEVKKPGASVKVSCKASGYTFTDYSMDWVRQAPGQGLEWMGAINPNSGGTNYNQKFKDRVTMTRDTSTSTVYMELSSLRSEDTAVYYCARSGSYDGYYAMDYWGQGTTVTVSSASTKGPSVFPLAPCSRSTSESTAALGCLVKDYFPEPVTVSWNSGALTSGVHTFPAVLQSSGLYSLSSVVTVPSSNFGTQTYTCNVDHKPSNTKVDKTVERKCCVECPPCPAPPVAGPSVFLFPPKPKDTLMISRTPEVTCVVVDVSHEDPEVQFNWYVDGVEVHNAKTKPREEQFNSTFRVVSVLTVVHQDWLNGKEYKCKVSNKGLPAPIEKTISKTKGQPREPQVYTLPPSREEMTKNQVSLTCLVKGFYPSDISVEWESNGQPENNYKTTPPMLDSDGSFFLYSKLTVDKSRWQQGNVFSCSVMHEALHNHYTQKSLSLSPGK
light: B16 light
notes: Humanized full length IgG
B20: BNJ381 (antibody, human IgG2, kappa, V domains shown)
VH: QVQLVQSGAEVKKPGASVKVSCKASGYTFTDYSMDWVRQAPGQGLEWMGAIHLNTGYTNYNQKFKGRVTMTRDTSTSTVYMELSSLRSEDTAVYYCARGFYDGYSPMDYWGQGTTVTVSS
VL: B18 VL
notes: as for B18

molecular target: T1, human C5a (human, UniProt P01031 678-751); experiment: ELISA
T1 construct: also called hC5a; free human C5a
T1 sequence: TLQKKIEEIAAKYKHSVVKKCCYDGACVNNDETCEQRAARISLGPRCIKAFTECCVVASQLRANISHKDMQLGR

**Q.** Does B1 bind?
**A.** binds

**Q.** Does B2 bind?
**A.** binds

**Q.** Does B3 bind?
**A.** binds

**Q.** Does B4 bind?
**A.** binds

**Q.** Does B5 bind?
**A.** binds

**Q.** Does B6 bind?
**A.** binds

**Q.** Does B7 bind?
**A.** binds

**Q.** Does B8 bind?
**A.** binds

**Q.** Does B9 bind?
**A.** binds

**Q.** Does B10 bind?
**A.** binds

**Q.** Does B11 bind?
**A.** binds

**Q.** Does B12 bind?
**A.** binds

**Q.** Does B13 bind?
**A.** binds

**Q.** Does B14 bind?
**A.** binds

**Q.** Does B15 bind?
**A.** binds

molecular target: T1, human C5a; experiment: SPR (Biacore); antibody captured by anti-human Fc on CM5 chip, human C5a 0.6-5.9 nM as analyte; 1:1 Langmuir fit
Protocol: (§1) See, e.g., Karlsson and Larsson (2004) Methods Mol Biol 248:389-415. […] The surface was regenerated with 20 mM HCl, 0.02% P20 after each cycle to remove bound antibody and antigen. The data was evaluated using Biacore BlAevaluation software using a 1:1 Langmuir Model Fit (Rmax:Global Fit; R1:Local Fit). Kinetics information such as (kₐ: Association Rate constant), (kd:Dissociation Rate constant) and KD (Equilibrium Dissociation constant) was obtained from the fit. These experiments were for screening purposes with a minimal number of analyte concentrations (3 to 4) with 1 duplicate.

**Q.** With B16 as the binder, how does the Kd read?
**A.** 0.198 nM

**Q.** What about the koff of the same binder?
**A.** 0.000778 s⁻¹

**Q.** And the kon?
**A.** 3.94e+06 M⁻¹ s⁻¹

**Q.** How did the Kd turn out when B17 was run?
**A.** 0.0531 nM

**Q.** What about the koff of the same binder?
**A.** 0.000223 s⁻¹

**Q.** What about the kon of the same binder?
**A.** 4.19e+06 M⁻¹ s⁻¹

**Q.** Which results are given for B18?
**A.** Kd: 1.18 nM; koff: 0.00282 s⁻¹; kon: 2.38e+06 M⁻¹ s⁻¹

**Q.** With B19 as the binder, how does the Kd read?
**A.** 0.644 nM

**Q.** What about the koff of the same binder?
**A.** 0.000638 s⁻¹

**Q.** And the kon?
**A.** 991000 M⁻¹ s⁻¹

**Q.** With B20 as the binder, how does the Kd read?
**A.** 0.0815 nM

**Q.** What about the koff of the same binder?
**A.** 0.000209 s⁻¹

**Q.** And the kon?
**A.** 2.57e+06 M⁻¹ s⁻¹

molecular target: T1, human C5a; experiment: SPR (Biacore); summary sentence of Table 4
Protocol: as §1

**Q.** For B16, which Kd is on record?
**A.** < 1 nM

**Q.** B18 was tested. Which Kd did it give?
**A.** < 1.2 nM

**Q.** Which Kd does the source give for B19 here?
**A.** < 1 nM
